Assay results: the supplement of paper PMC10126150
± gives the standard deviation of the averaged measurements.

What follows are sequences tested on ATP (assay: switch fluorescence ratio, 500 uM ATP over buffer (Cy3 cluster intensity, sum of 5 cycles each) (fold (ratio)); higher = stronger signal-on switching upon ATP binding; sequences stand for … in TCGTCGGCAGCGTCAGATGTGTATAAGAGACAGTTTTTTTTTTTTTTTTTTTTTTTTT…TC). Details: aptamer strand: ATP DNA aptamer (quencher-CACCTGGGGGAGTATTGCGGAGGAAGG + anchor), 100 nM annealed; ATP concentration: 500 uM.
In short: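 Five buffer/ATP imaging cycles were run on Cy3-labelled switching-strand clusters on a modified Illumina MiSeq flow-cell, with NaOH stripping and re-annealing between cycles. In each cycle, clusters annealed to 100 nM quencher-labelled ATP aptamer were imaged in selection buffer, then after 15 min with 500 uM ATP at 22 °C. Per cluster, the fluorescence ratio is summed target-cycle over summed buffer-cycle Cy3 intensity, averaged per switch-domain sequence. Only clusters within 100-1000 RFU were kept.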
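Note: ATP exposure 15 min at 22 °C before imaging.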

| Sequence | switch fluorescence ratio |
| --- | --- |
| GGGTAGGGCC | 1.026 ± 0.0023 |
| GGGTAGGGGG | 0.989 ± 0.02 |
| GGGTAGGGTC | 1.01 ± 0.022 |
| GGGTAGTGAG | 0.999 ± 0.02 |
| GGGTATACGG | 0.982 ± 0.086 |
| GGGTATAGGC | 0.981 ± 0.046 |
| GGGTATAGGT | 0.999 ± 0.016 |
| GGGTATCACG | 1 ± 0.017 |
| GGGTATCAGG | 0.965 ± 0.016 |
| GGGTATCTAT | 1.012 ± 0.0067 |
| GGGTATGGCT | 1.02 ± 0.018 |
| GGGTATGTAT | 0.992 ± 0.027 |
| GGGTATGTGG | 0.972 ± 0.032 |
| GGGTATGTGT | 0.986 ± 0.015 |
| GGGTATTGAT | 1.01 ± 0.042 |
| GGGTCAAATA | 0.982 ± 0.011 |
| GGGTCAACGC | 0.9974 ± 0.0036 |
| GGGTCAAGCG | 0.943 ± 0.017 |
| GGGTCAGGTA | 0.996 ± 0.03 |
| GGGTCCACAG | 1.01 ± 0.04 |
| GGGTCCATGG | 0.985 ± 0.024 |
| GGGTCCATTT | 1.01 ± 0.037 |
| GGGTCCCTTG | 1 ± 0.026 |
| GGGTCCGCGG | 1.04 ± 0.011 |
| GGGTCCGGCC | 0.992 ± 0.02 |
| GGGTCCTAAG | 0.975 ± 0.038 |

| Sequence | switch fluorescence ratio |
| --- | --- |
| GGGTCCTGCG | 1.04 ± 0.019 |
| GGGTCCTTGT | 1.01 ± 0.041 |
| GGGTCGATTT | 0.999 ± 0.01 |
| GGGTCGCGCA | 1.02 ± 0.029 |
| GGGTCGGACG | 1.028 ± 0.0088 |
| GGGTCGGCGA | 1.03 ± 0.011 |
| GGGTCGGGAG | 0.979 ± 0.027 |
| GGGTCTAAG | 0.987 ± 0.041 |
| GGGTCTGCAC | 0.997 ± 0.013 |
| GGGTCTGGTA | 1.02 ± 0.038 |
| GGGTCTTCGC | 0.991 ± 0.024 |
| GGGTCTTGGC | 1.0357 ± 0.00074 |
| GGGTCTTTTC | 1.11 ± 0.11 |
| GGGTCTTTTT | 1.02 ± 0.055 |
| GGGTGAACAT | 0.98659 ± 0.00029 |
| GGGTGACAAT | 1 ± 0.04 |
| GGGTGAGCGA | 1.05 ± 0.064 |
| GGGTGAGGAT | 1 ± 0.046 |
| GGGTGAGGGA | 1.01 ± 0.035 |
| GGGTGAGGGG | 1.01 ± 0.033 |
| GGGTGAGTTT | 1.038 ± 0.0051 |
| GGGTGATGTA | 0.996 ± 0.026 |
| GGGTGATTAA | 0.994 ± 0.017 |
| GGGTGCAATT | 1.05 ± 0.028 |
| GGGTGCAGCG | 0.993 ± 0.03 |
| GGGTGCGGAC | 1.01 ± 0.042 |

| Sequence | switch fluorescence ratio |
| --- | --- |
| GGGTGCGTTC | 0.964 ± 0.027 |
| GGGTGCGTTG | 1.04 ± 0.024 |
| GGGTGGAAGC | 1.02 ± 0.018 |
| GGGTGGAGGG | 0.973 ± 0.012 |
| GGGTGGATAG | 0.971 ± 0.018 |
| GGGTGGCTCG | 0.997 ± 0.046 |
| GGGTGGCTTT | 0.9872 ± 0.0083 |
| GGGTGGGCAG | 1.009 ± 0.0027 |
| GGGTGGGGAT | 1 ± 0.02 |
| GGGTGGGTGT | 1.05 ± 0.057 |
| GGGTGGTAGA | 1.01 ± 0.04 |
| GGGTGGTATT | 1.03 ± 0.013 |
| GGGTGGTGCC | 0.997 ± 0.056 |
| GGGTGGTGGG | 0.987 ± 0.057 |
| GGGTGGTGTA | 1.07 ± 0.096 |
| GGGTGGTGTG | 0.99 ± 0.068 |
| GGGTGGTTTT | 1.01 ± 0.035 |
| GGGTGTAGCG | 0.965 ± 0.026 |
| GGGTGTAGTA | 0.9978 ± 0.0079 |
| GGGTGTAGTC | 1.02 ± 0.043 |
| GGGTTAAAGA | 1 ± 0.017 |
| GGGTTAACGT | 0.987 ± 0.017 |
| GGGTTAAGGG | 0.984 ± 0.035 |
| GGGTTACGGG | 1.008 ± 0.0045 |
| GGGTTAGATG | 0.9893 ± 0.0069 |
| GGGTTAGGAA | 0.991 ± 0.022 |

| Sequence | switch fluorescence ratio |
| --- | --- |
| GGGTTAGGGA | 0.996 ± 0.025 |
| GGGTTAGGGT | 0.991 ± 0.049 |
| GGGTTAGTTT | 0.992 ± 0.049 |
| GGGTTATATT | 0.988 ± 0.024 |
| GGGTTATCGG | 0.967 ± 0.041 |
| GGGTTATTAT | 1.01 ± 0.019 |
| GGGTTCCGGC | 1.03 ± 0.098 |
| GGGTTCCTAT | 0.987 ± 0.013 |
| GGGTTCGTTA | 0.993 ± 0.029 |
| GGGTTCTTAA | 0.981 ± 0.048 |
| GGGTTGAACC | 0.994 ± 0.032 |
| GGGTTGAAGG | 0.9875 ± 0.0022 |
| GGGTTGAGGA | 1.01 ± 0.05 |
| GGGTTGAGGG | 1 ± 0.027 |
| GGGTTGAGTT | 0.9849 ± 0.0035 |
| GGGTTGATGC | 1.02 ± 0.041 |
| GGGTTGCATG | 0.976 ± 0.016 |
| GGGTTGCCCT | 0.982 ± 0.033 |
| GGGTTGCTGT | 1.03 ± 0.1 |
| GGGTTGGGAG | 0.998 ± 0.044 |
| GGGTTGGGAT | 0.995 ± 0.021 |
| GGGTTGGGTT | 1.05 ± 0.18 |
| GGGTTGGTCA | 0.994 ± 0.0094 |
| GGGTTGTATT | 0.991 ± 0.031 |
| GGGTTGTGTG | 0.991 ± 0.11 |
| GGGTTGTTTT | 0.9944 ± 0.0082 |

| Sequence | switch fluorescence ratio |
| --- | --- |
| GGGTTTCAGA | 1.01 ± 0.028 |
| GGGTTTGCGA | 1.02 ± 0.048 |
| GGGTTTGCTG | 1.01 ± 0.076 |
| GGGTTTGTAG | 1.01 ± 0.056 |
| GGGTTTTATG | 0.991 ± 0.033 |
| GGGTTTTGCG | 0.9735 ± 0.0082 |
| GGGTTTTGGG | 0.979 ± 0.064 |
| GGGTTTTGTA | 0.974 ± 0.018 |
| GGTAAAAAAG | 1 ± 0.028 |
| GGTAAAAGAT | 0.977 ± 0.015 |
| GGTAAACGCG | 0.977 ± 0.016 |
| GGTAAAGATA | 0.986 ± 0.019 |
| GGTAAAGGCG | 0.9621 ± 0.0048 |
| GGTAAATTGT | 1.01 ± 0.028 |
| GGTAACATGG | 1.01 ± 0.021 |
| GGTAATGGTA | 0.9702 ± 0.0045 |
| GGTAATTATT | 0.951 ± 0.067 |
| GGTAATTGAA | 0.9878 ± 0.0076 |
| GGTACACAGC | 1.02 ± 0.015 |
| GGTACGGAAA | 1.02 ± 0.016 |
| GGTACGGCAA | 1.09 ± 0.019 |
| GGTACGGGGA | 1.03 ± 0.051 |
| GGTACGTTTG | 0.993 ± 0.033 |
| GGTAGACGGT | 1.02 ± 0.049 |
| GGTAGAGATT | 1.02 ± 0.037 |
| GGTAGAGTAC | 1.02 ± 0.046 |

| Sequence | switch fluorescence ratio |
| --- | --- |
| GGTAGCAGCG | 1.05 ± 0.059 |
| GGTAGGAGAG | 0.987 ± 0.0057 |
| GGTAGGAGTA | 0.932 ± 0.051 |
| GGTAGGGATC | 1.017 ± 0.0042 |
| GGTAGGGCGA | 1.01 ± 0.026 |
| GGTAGGTAGG | 1.01 ± 0.038 |
| GGTATAAAGG | 0.996 ± 0.014 |
| GGTATACGTA | 0.935 ± 0.071 |
| GGTATAGTTG | 0.993 ± 0.041 |
| GGTATATGTC | 0.994 ± 0.05 |
| GGTATATTGG | 1.01 ± 0.012 |
| GGTATCAGGA | 0.978 ± 0.013 |
| GGTATGGACA | 0.997 ± 0.013 |
| GGTATGGATA | 1 ± 0.027 |
| GGTATGGGGT | 1.03 ± 0.058 |
| GGTATGGGTG | 1.023 ± 0.0055 |
| GGTATGGTGG | 1.01 ± 0.036 |
| GGTATTATTT | 0.995 ± 0.023 |
| GGTATTCGAG | 1.02 ± 0.0013 |
| GGTATTGAGG | 0.9871 ± 0.003 |
| GGTCACGTAT | 1.05 ± 0.014 |
| GGTCAGGGTA | 1.01 ± 0.04 |
| GGTCATATGC | 1.04 ± 0.013 |
